Target: Sec5 (bone marrow-derived macrophages) (mouse (endogenous in bone …, UniProt Q9D4H1 1-924))
Experiment: co-IP

Sec5 (bone marrow-derived macrophages) (mouse, sequence (Q9D4H1 whole entry): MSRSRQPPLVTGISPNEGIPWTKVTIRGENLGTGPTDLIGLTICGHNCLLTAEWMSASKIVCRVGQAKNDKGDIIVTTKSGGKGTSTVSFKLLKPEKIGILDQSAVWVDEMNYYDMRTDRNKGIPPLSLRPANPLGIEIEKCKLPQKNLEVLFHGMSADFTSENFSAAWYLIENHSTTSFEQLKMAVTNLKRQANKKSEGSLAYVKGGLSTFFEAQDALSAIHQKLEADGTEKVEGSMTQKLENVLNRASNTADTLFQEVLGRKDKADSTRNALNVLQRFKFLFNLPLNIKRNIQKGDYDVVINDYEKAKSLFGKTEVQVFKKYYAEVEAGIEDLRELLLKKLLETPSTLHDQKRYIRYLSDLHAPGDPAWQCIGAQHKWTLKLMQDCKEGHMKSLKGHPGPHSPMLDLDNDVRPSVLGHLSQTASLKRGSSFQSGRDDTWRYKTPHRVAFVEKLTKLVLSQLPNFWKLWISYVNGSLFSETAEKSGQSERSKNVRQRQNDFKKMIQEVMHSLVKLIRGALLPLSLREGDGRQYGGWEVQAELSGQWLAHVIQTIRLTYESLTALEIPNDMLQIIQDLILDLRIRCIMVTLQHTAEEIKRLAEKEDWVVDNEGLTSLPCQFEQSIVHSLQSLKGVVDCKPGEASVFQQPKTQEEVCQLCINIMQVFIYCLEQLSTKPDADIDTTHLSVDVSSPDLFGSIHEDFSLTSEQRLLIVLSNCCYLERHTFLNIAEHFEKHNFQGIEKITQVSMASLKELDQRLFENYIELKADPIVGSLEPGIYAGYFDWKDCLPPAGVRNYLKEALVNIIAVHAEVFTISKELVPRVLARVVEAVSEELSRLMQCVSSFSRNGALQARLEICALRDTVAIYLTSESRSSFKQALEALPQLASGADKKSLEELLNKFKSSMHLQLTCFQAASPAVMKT

B1: Exo84 (bone marrow-derived macrophages) (natural protein, UniProt Q6PGF7 1-716, looked up)
chain: MSDSGASRLRRQLESGGFEARLYVKQLSQQSDGDRDLQEHRQRVQALAEETAQNLKRNVYQNYRQFIETAREISYLESEMYQLSHLLTEQKSSLESIPLALLPAAAAGASAGEDTAGAGPRERGAVQAGFLPGPAGVPREGSGTGEEGKQRTLTTLLEKVEGCRDLLETPGQYLVYNGDLVEYDADHMAQLQRVHGFLMNDCLLVATWLPQRRGMYRYNALYPLDRLAVVNVKDNPPMKDMFKLLMFPESRIFQAENAKIKREWLEVLEETKRALSDKRRREQEEAAAPRAPPPVTSKGSNPFEDEDDEELATPEAEEEKVDLSMEWIQELPEDLDVCIAQRDFEGAVDLLDKLNHYLEDKPSPPPVKELRAKVDERVRQLTEVLVFELSPDRSLRGGPKATRRAVSQLIRLGQCTKACELFLRNRAAAVHTAIRQLRIEGATLLYIHKLCHVFFTSLLETAREFETDFAGTDSGCYSAFVVWARSAMGMFVDAFSKQVFDSKESLSTAAECVKVAKEHCQQLGEIGLDLTFIIHALLVKDIQGALHSYKEIIIEATKHRNSEEMWRRMNLMTPEALGKLKEEMKSCGVSNFEQYTGDDCWVNLSYTVVAFTKQTMGFLEEALKLYFPELHMVLLESLVEIILVAVQHVDYSLRCEQDPEKKAFIRQNASFLYETVLPVVERRFEEGVGKPAKQLQDLRNASRLLRVNPESTTSVV
fold increase of the association in Tipe2-/- cells over wild type cells: ~3 fold

From publication PMC3299909 (Molecular Cell, 2012)
